Data taken from patent US20220403023A1.

Key:
[1] = biological target: human CD47 on engineered CHO-K1 cells (human) (UniProt Q08722); experiment: FACS on CHO-K1 cells expressing human CD47 (CHOK1-huCD47), goat anti-human IgG-Fc PE; blank (Neg) 34.8
[2] = biological target: CD47 on human red blood cells (human) (UniProt Q08722); experiment: FACS on human red blood cells, goat anti-human IgG-Fc PE; blank (Neg) 232
[3] = biological target: human CD47 on engineered CHO-K1 cells (human) (UniProt Q08722); experiment: competition FACS against human SIRPα-His (1 µg/mL) on CHOK1-huCD47 cells; ligand only 1086
[4] = biological target: cynomolgus monkey CD47 on engineered CHO-K1 cells (cynomolgus monkey); experiment: FACS on CHO-K1 cells expressing cynomolgus CD47 (CHOK1-cynoCD47), goat anti-human IgG-Fc PE; blank (Neg) 47.6
[5] = biological target: human CD47 ECD protein (human) (UniProt Q08722); experiment: competition ELISA against human SIRPα-His (1 µg/mL) on plate-coated human CD47 ECD; ligand only 1.438
[6] = biological target: human CD47 ECD protein (human) (UniProt Q08722); experiment: ELISA on plate-coated human CD47 ECD (1 µg/mL), goat anti-human IgG-Fc-HRP, OD450; blank (Neg) 0.102
[7] = biological target: CD47 on human origin tumor cells (human) (UniProt Q08722); experiment: FACS on A375 cells
[8] = biological target: CD47 on human origin tumor cells (human) (UniProt Q08722); experiment: FACS on HepG2 cells
[9] = biological target: CD47 on human origin tumor cells (human) (UniProt Q08722); experiment: FACS on MDA-MB-453 cells
[10] = biological target: CD47 on human origin tumor cells (human) (UniProt Q08722); experiment: FACS on HT29 cells
[11] = biological target: CD47 on human origin tumor cells (human) (UniProt Q08722); experiment: FACS on A431 cells
[12] = biological target: CD47 on human origin tumor cells (human) (UniProt Q08722); experiment: FACS on FaOb cells
[13] = biological target: CD47 on human origin tumor cells (human) (UniProt Q08722); experiment: FACS on BT474 cells
CTLA4.his = experiment: non-specific binding ELISA, protein coated 1 µg/mL
Chain of CTLA4.his (P16410 36-161): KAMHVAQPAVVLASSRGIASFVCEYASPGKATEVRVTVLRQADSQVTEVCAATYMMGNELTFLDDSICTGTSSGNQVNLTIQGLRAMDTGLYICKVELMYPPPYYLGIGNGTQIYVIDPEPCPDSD

Factor Eight = experiment: non-specific binding ELISA, protein coated 1 µg/mL
OX40.his = experiment: non-specific binding ELISA, protein coated 1 µg/mL
Chain of OX40.his (P43489 29-214): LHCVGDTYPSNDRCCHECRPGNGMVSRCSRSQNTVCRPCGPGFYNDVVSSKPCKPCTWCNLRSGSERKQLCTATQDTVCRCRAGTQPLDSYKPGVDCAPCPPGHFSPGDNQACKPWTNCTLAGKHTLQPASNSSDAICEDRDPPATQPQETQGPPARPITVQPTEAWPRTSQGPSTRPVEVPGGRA

[14] = biological target: PD-1.his (Homo sapiens (Human)) (UniProt Q15116); experiment: non-specific binding ELISA, protein coated 1 µg/mL
Chain of PD-1.his (Homo sapiens (Human)) (Q15116 25-170 limits assumed): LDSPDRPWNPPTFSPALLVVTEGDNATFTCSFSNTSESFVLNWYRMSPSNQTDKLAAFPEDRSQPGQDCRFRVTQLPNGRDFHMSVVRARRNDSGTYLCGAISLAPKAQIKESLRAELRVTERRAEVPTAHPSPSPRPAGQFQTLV

4-1B8.his = experiment: non-specific binding ELISA, protein coated 1 µg/mL
Chain of 4-1B8.his (Q07011 24-186): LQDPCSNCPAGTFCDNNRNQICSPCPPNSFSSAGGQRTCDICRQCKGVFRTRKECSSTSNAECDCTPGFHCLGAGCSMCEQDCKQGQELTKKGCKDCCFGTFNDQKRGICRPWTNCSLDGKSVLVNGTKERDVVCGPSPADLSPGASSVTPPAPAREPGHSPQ

CD40.his = experiment: non-specific binding ELISA, protein coated 1 µg/mL
Chain of CD40.his (P25942 21-193): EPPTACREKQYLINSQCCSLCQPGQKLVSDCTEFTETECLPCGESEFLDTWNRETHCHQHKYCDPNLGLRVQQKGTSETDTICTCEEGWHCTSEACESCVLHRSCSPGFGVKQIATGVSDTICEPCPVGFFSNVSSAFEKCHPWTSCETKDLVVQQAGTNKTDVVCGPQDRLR

VEGFR2.his = experiment: non-specific binding ELISA, protein coated 1 µg/mL
Chain of VEGFR2.his (P35968 20-764): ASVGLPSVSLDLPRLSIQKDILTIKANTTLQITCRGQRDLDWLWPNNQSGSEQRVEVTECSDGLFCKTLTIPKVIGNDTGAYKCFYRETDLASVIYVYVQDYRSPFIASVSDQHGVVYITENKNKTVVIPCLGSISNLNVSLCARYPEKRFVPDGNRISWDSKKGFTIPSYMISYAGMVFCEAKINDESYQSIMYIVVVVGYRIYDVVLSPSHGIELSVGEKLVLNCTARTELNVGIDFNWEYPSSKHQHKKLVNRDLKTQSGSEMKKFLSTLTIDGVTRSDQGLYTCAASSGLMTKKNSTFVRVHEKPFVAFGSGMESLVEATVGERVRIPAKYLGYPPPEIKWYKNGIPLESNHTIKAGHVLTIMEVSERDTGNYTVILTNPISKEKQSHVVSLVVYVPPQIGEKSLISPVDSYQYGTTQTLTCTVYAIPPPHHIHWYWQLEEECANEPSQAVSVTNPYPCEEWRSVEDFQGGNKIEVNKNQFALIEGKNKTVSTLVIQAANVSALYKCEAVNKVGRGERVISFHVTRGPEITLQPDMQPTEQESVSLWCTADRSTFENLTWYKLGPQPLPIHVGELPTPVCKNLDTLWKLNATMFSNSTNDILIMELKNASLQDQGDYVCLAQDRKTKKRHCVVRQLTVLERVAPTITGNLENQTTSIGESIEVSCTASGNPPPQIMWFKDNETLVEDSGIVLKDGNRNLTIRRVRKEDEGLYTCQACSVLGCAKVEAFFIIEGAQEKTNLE

FGFR.his = experiment: non-specific binding ELISA, protein coated 1 µg/mL
CD147.his = experiment: non-specific binding ELISA, protein coated 1 µg/mL
[15] = biological target: HER3.his (Homo sapiens (Human)) (UniProt P21860); experiment: non-specific binding ELISA, protein coated 1 µg/mL
VEGF.his = experiment: non-specific binding ELISA, protein coated 1 µg/mL
HSA. = HSA. (UniProt P02768); experiment: non-specific binding ELISA, protein coated 1 µg/mL
CD22.his = experiment: non-specific binding ELISA, protein coated 1 µg/mL
CD3.his = experiment: non-specific binding ELISA, protein coated 1 µg/mL
[16] = biological target: CD47 on human origin tumor cells (human) (UniProt Q08722); experiment: FACS on CaLu-6 cells
[17] = biological target: CD47 on human origin tumor cells (human) (UniProt Q08722); experiment: FACS on A204 cells
[18] = biological target: CD47 on human origin tumor cells (human) (UniProt Q08722); experiment: FACS on Jurkat.268 cells
[19] = biological target: CD47 on human origin tumor cells (human) (UniProt Q08722); experiment: FACS on 293F cells
[20] = biological target: CD47 on human origin tumor cells (human) (UniProt Q08722); experiment: FACS on Hut78 cells
[21] = biological target: CD47 on human origin tumor cells (human) (UniProt Q08722); experiment: FACS on Ramos cells
[22] = biological target: CD47 on human origin tumor cells (human) (UniProt Q08722); experiment: FACS on BxPC-3 cells

IgG4 isotype control (antibody) was tested, and the Max MFI [1] was 66 MFI, the Max MFI [2] was 238 MFI and the Max Inhibit% [3] was 12.2%. It also gave a Min MFI [3] of 953 MFI, a Max MFI [4] of 97.9 MFI and a Max Inhibit% [5] of 21.2%. It also gave a Min OD [5] of 1.13 OD450 and a Max OD [6] of 0.123 OD450.

hIgG4K Isotype control (antibody) was tested, and the MFI [7] was 22.8, the MFI [8] was 32.2 and the MFI [9] was 32.2. For the same substance, the MFI [10] was 44.3, the MFI [11] was 39.5 and the MFI [12] was 36.2. For the same substance, the MFI [13] was 20.8, the ELISA-OD450 (CTLA4.his) was 0.0562 and the ELISA-OD450 (Factor Eight) was 0.181. It also gave an ELISA-OD450 (OX40.his) of 0.0508, an ELISA-OD450 [14] of 3.71 and an ELISA-OD450 (4-1B8.his) of 0.0463. For the same substance, the ELISA-OD450 (CD40.his) was 0.213, the ELISA-OD450 (VEGFR2.his) was 0.0432 and the ELISA-OD450 (FGFR.his) was 0.133. For the same substance, the ELISA-OD450 (CD147.his) was 0.0424, the ELISA-OD450 [15] was 0.044 and the ELISA-OD450 (VEGF.his) was 0.0452. For the same substance, the ELISA-OD450 (HSA.) was 0.322, the ELISA-OD450 (CD22.his) was 0.0451 and the ELISA-OD450 (CD3.his) was 0.0479. It also gave an MFI [16] of 23.3, an MFI [17] of 34.7 and an MFI [18] of 36.9. The MFI [19] was 56.4, the MFI [20] was 49.7 and the MFI [21] was 74.4. For the same substance, the MFI [22] was 42.9.

hIgG4L Isotype control (antibody) gave an MFI [7] of 49.5, an MFI [8] of 27.3 and an MFI [9] of 28.3. The MFI [10] was 45.7, the MFI [11] was 251 and the MFI [12] was 429. It also gave an MFI [13] of 19.1, an ELISA-OD450 (CTLA4.his) of 0.0571 and an ELISA-OD450 (Factor Eight) of 0.0481. The ELISA-OD450 (OX40.his) was 0.051, the ELISA-OD450 [14] was 0.227 and the ELISA-OD450 (4-1B8.his) was 0.0463. For the same substance, the ELISA-OD450 (CD40.his) was 0.205, the ELISA-OD450 (VEGFR2.his) was 0.0441 and the ELISA-OD450 (FGFR.his) was 0.137. It also gave an ELISA-OD450 (CD147.his) of 0.0443, an ELISA-OD450 [15] of 0.0445 and an ELISA-OD450 (VEGF.his) of 0.0463. It also gave an ELISA-OD450 (HSA.) of 0.335, an ELISA-OD450 (CD22.his) of 0.0467 and an ELISA-OD450 (CD3.his) of 0.0518. For the same substance, the MFI [16] was 88.4, the MFI [17] was 42.4 and the MFI [18] was 64.3. For the same substance, the MFI [19] was 28.7, the MFI [20] was 50.2 and the MFI [21] was 68.4. For the same substance, the MFI [22] was 110.
